From patent US20220195049A1 (Scripps Research, published 2022)

What was measured:
[1] = molecular target: human PD-L1 expressed on the cell surface (human, UniProt Q9NZQ7 19-290); experiment: cell-based or functional assay
[2] = molecular target: T1, mouse PD-L1 on IFN-gamma-treated MC38 murine colon cancer cells (mouse, UniProt Q9EP73 19-290); experiment: the sentence names no assay
T1 construct: whole, on cells; also called mouse PD-L1 protein

[3] = molecular target: T2, PD-L1-Fc (PD-L1 antigen protein, extracellular region Met1-Thr239 fused to human Fc) (human, UniProt Q9NZQ7 19-239); experiment: BLI (Octet); PD-1-coated biosensor dipped in a mix of PD-L1 antigen protein and antibody; KD from the Octet software
T2 construct: range 1-239; the secreted protein lacks it; also called PD-L1-Fc antigen; pCEP4-PDL1-Fc product; not shown: human Fc fragment of the pCEP4-Fc vector

[4] = molecular target: T3, human PD-L1 antigen protein (Sino Biological) (human, UniProt Q9NZQ7 19-238); experiment: SPR (Biacore T200), antibody captured by anti-human IgG (Fc), PD-L1 as analyte, 1:1 model
T3 construct: Bought from Sino Biological
Description: (§1) 3) In order to remove the bound antibody every cycle, a regeneration solution (3 M MgCl₂) was injected at a flow rate of 30 μl/min for 30 seconds, and the experimental data were obtained using a 1:1 binding model of BIA evaluation software version 1.0.

[5] = molecular target: T4, mouse PD-L1 antigen protein (mouse, UniProt Q9EP73 19-238, limits assumed); experiment: as above
Description: as §1

[6] = molecular target: T3, human PD-L1 antigen protein (Sino …); experiment: SPR (Biacore T200), antibody captured by anti-human IgG (Fc) on a CM5 chip, hPD-L1 as analyte, 1:1 binding model
Description: as §1

[7] = molecular target: T4, mouse PD-L1 antigen protein; experiment: SPR (Biacore T200), antibody captured by anti-human IgG (Fc) on a CM5 chip, mPD-L1 as analyte, 1:1 binding model
Description: as §1

T4 sequence (Q9EP73 19-238 limits assumed): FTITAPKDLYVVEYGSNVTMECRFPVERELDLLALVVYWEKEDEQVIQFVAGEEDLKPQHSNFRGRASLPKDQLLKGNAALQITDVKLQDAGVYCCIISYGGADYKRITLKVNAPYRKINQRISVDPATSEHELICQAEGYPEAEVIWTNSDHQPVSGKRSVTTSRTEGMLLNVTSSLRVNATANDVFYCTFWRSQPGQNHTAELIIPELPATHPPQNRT
T2 sequence (Q9NZQ7 19-239): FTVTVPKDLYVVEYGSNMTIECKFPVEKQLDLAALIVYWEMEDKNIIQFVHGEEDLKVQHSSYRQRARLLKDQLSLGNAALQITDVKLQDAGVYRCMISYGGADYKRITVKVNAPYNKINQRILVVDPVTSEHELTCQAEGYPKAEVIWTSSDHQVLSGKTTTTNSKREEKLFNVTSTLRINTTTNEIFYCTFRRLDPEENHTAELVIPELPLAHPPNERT
T3 sequence (Q9NZQ7 19-238 limits assumed): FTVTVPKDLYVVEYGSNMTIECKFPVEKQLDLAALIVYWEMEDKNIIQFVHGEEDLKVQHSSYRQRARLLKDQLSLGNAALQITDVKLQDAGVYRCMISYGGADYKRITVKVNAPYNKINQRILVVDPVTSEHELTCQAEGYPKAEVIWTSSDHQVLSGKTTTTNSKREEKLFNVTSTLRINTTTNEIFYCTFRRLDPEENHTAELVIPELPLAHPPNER
human PD-L1 expressed on the cell surface, sequence (Q9NZQ7 19-290): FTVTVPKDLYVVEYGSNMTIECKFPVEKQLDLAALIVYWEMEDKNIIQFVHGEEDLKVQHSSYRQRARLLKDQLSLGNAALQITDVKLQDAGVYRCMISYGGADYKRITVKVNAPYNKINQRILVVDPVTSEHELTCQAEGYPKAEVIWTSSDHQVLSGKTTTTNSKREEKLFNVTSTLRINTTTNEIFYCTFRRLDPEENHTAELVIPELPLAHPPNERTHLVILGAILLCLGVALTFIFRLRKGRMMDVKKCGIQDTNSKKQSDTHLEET
T1 sequence (Q9EP73 19-290): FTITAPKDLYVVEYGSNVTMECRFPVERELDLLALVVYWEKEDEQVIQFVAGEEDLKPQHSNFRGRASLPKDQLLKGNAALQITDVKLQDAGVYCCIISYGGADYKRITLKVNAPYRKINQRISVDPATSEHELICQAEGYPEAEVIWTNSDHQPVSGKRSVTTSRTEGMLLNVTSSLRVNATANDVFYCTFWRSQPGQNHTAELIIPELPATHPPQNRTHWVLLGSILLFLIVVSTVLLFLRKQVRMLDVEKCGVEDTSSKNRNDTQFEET

| PD-1/PD-L1 binding inhibitory performance relative to 100% of the MK3475 antibody (Promega PD-1/PD-L1 Blockade Bioassay) [1] [%] | binding result [2] | Kd [3] [nM] | Kd [4] [nM] | Kd [5] [nM] | koff [6] [s⁻¹] | kon [6] [M⁻¹ s⁻¹] | koff [7] [s⁻¹] | kon [7] [M⁻¹ s⁻¹] | Binder |
| --- | --- | --- | --- | --- | --- | --- | --- | --- | --- |
| 89 | binds | 0.0584 | – | – | – | – | – | – | KL001 (PL110) (antibody, V domains shown, IgG (VH-CH1-hinge-CH2-CH3 and VL-Ck); also called KL001 clone) VH: QVQLVESGAEVKKPGSSVKVSCKASGGTFSSYAISWVRQAPGQGLEWMGRIIPILGIANYAQKFQGRVTVTADKSTSTAYMELSSLRSEDTAVYYCARSGYSYAYGSFDYWGQGTLVTVSS VL: QLVLTQPPSVSGAPGQTVTISCTGPTIGAGYDVHWYQQLPGAAPKLLIYGNLNRPSGVPDRFSGSKSGTSASLAITDLQAEDEADYYCQSYDSRLGVVFGGGTKLTVLR |
| – | – | 0.00488 | ~0.0632 | ~2.8 | 0.000319 | 5.05e+06 | 0.00878 | 3.14e+06 | KL001-13 (antibody, human IgG1, kappa, V domains shown, also called KL001-13 candidate antibody) VH: QVQLVESGAEVKKPGSSVKVSCKASGGTFSSYAISWVRQAPGQGLEWMGRIIPILGIANYAQKFQGRVTVTADKSTSTAYMELSSLRSEDTAVYYCARSGYGYAYGSFDYWGQGTLVTVSS VL: QLVLTQPPSVSGAPGQTVTISCTGQTIGAGYDVHWYQQLPGAAPKLLIYGNLNRPSGVPDRFSGSKSGTSASLAITDLQAEDEADYYCQSYDSRLGVVFGGGTKLTVLR |
| – | – | 0.0142 | 0.0671 | 6.4 | 0.000277 | 4.13e+06 | 0.0106 | 1.65e+06 | KL001-08 (antibody, V domains shown, In the Biacore assay it was captured by anti-human IgG (Fc), so it carried a human Fc there; also called KL001-8) VH: QVQLVESGAEVKKPGSSVKVSCKASGGTFSGYAISWVRQAPGQGLEWMGRIIPALGIANYAQKFQGRVTVTADKSTSTAYMELSSLRSEDTAVYYCARSGYGYAYGSFDYWGQGTLVTVSS VL: QLVLTQPPSVSGAPGQTVTISCTGPTIGAGYDVHWYQQLPGAAPKLLIYGNLNRPSGVPDRFSGSKSGTSASLAITDLQAEDEADYYCQSYDSTHGVVFGGGTKLTVL |
